The supplement of paper PMC7125110
± gives the standard error. This sample holds only a part of the variants without activity.

B1: glmS ribozyme (parent)
chain: AUAAAAGCGCCAGAACUACAGAAAUGUAGUUGACGAGGAGGAGGUUUAUCGAAUUUUCGGCGGAUGCCUCCAAA

Key:
Details in all cases: with glucosamine-6-phosphate
[1] = variants of: B1; assay: self-cleavage kobs at 40 uM GlcN6P; higher = faster cleavage; RNA array
Outline: (§1)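 A hybridised Cy3 probe tracked barcoded ribozyme variants, transcribed in situ by E. coli RNA polymerase on sequenced MiSeq chips, at 37 °C. The variants received 40 μM to 10 mM glucosamine-6-phosphate in HEPES/KCl/Mg(OAc)2 buffer. kobs came from decay fits and kcat and KM from weighted Michaelis–Menten fits.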

[2] = variants of: B1; assay: self-cleavage kobs at 10000 uM GlcN6P; higher = faster cleavage; RNA array
Outline: as §1

[3] = variants of: B1; assay: self-cleavage kobs at 160 uM GlcN6P; higher = faster cleavage; RNA array
Outline: as §1

[4] = variants of: B1; assay: self-cleavage kobs at 640 uM GlcN6P; higher = faster cleavage; RNA array
Outline: as §1

[5] = variants of: B1; assay: self-cleavage kobs at 2500 uM GlcN6P; higher = faster cleavage; RNA array
Outline: as §1

Variant | self-cleavage kobs at 40 uM GlcN6P [1] [s⁻¹] | self-cleavage kobs at 10000 uM GlcN6P [2] [s⁻¹] | self-cleavage kobs at 160 uM GlcN6P [3] [s⁻¹] | self-cleavage kobs at 640 uM GlcN6P [4] [s⁻¹] | self-cleavage kobs at 2500 uM GlcN6P [5] [s⁻¹]
A12G A36C G51U | < 1e-05 | < 1e-05 | – | – | –
A12U C71A | 0.000512 ± 5.5e-05 | 0.0343 ± 0.0084 | 0.0012 ± 0.00016 | 0.00333 ± 0.00046 | 0.0115 ± 0.0027
G13C U31A G51A | < 1e-05 | – | – | – | –
A14C G44C C50U U65G | < 1e-05 | – | – | – | –
A12U U57A G59C G60C | < 1e-05 | – | – | – | –
G13U C50G C70G | 7.6e-05 ± 2.2e-05 | 6.1e-05 ± 1.2e-05 | 0.000214 ± 5.6e-05 | 8.28e-05 ± 1.7e-05 | 0.000166 ± 3.6e-05
A12G A36G | < 1e-05 | < 1e-05 | < 1e-05 | < 1e-05 | –
A12U G13A U47C A53G | < 1e-05 | – | – | – | –
G13U G38U A52G C68G U69G | 0.000165 ± 5.9e-05 | 8.14e-05 ± 2.1e-05 | – | – | –
G13U U45C | < 1e-05 | 6.21e-05 ± 1.4e-05 | < 1e-05 | – | –
A12C G43U C70A | < 1e-05 | < 1e-05 | – | – | –
G13U G62A | < 1e-05 | < 1e-05 | – | – | < 1e-05
A12C G38A | < 1e-05 | – | < 1e-05 | – | –
G13U G32U G37A G40C | < 1e-05 | – | – | – | –
A14U A33G | < 1e-05 | < 1e-05 | – | < 1e-05 | –
G13C A48U | < 1e-05 | < 1e-05 | – | – | < 1e-05
A12G U46C U49G C70U | < 1e-05 | 3.44e-05 ± 1.4e-05 | – | – | –
G13U A39C G44A | < 1e-05 | < 1e-05 | – | – | –
A14G C67A | 0.000654 ± 7e-05 | 0.0413 ± 0.01 | 0.00108 ± 0.00017 | 0.00492 ± 0.00077 | 0.00642 ± 0.0014
A14G C67U | 0.000746 ± 0.00014 | – | 0.00183 ± 0.00033 | 0.00612 ± 0.00075 | 0.0171 ± 0.0057
A12U G59C | < 1e-05 | < 1e-05 | < 1e-05 | < 1e-05 | < 1e-05
A14U G29C G38U C50G | 0.000223 ± 7.2e-05 | 7.38e-05 ± 1.8e-05 | – | – | –
A12C G62U | < 1e-05 | < 1e-05 | < 1e-05 | < 1e-05 | < 1e-05

Variant | self-cleavage kobs at 40 uM GlcN6P [1] [s⁻¹] | self-cleavage kobs at 10000 uM GlcN6P [2] [s⁻¹] | self-cleavage kobs at 160 uM GlcN6P [3] [s⁻¹] | self-cleavage kobs at 640 uM GlcN6P [4] [s⁻¹] | self-cleavage kobs at 2500 uM GlcN6P [5] [s⁻¹]
A14C U46A G59A C68G | < 1e-05 | – | – | – | –
G13C C61U | < 1e-05 | – | < 1e-05 | < 1e-05 | < 1e-05
G13U G40U A48C A53G U57G | < 1e-05 | – | – | – | –
A14U A52C | < 1e-05 | – | < 1e-05 | – | –
A14G A15U U31C | 0.000793 ± 0.00021 | 0.0212 ± 0.0057 | – | – | –
A12U C16A A53U | 6.29e-05 ± 1.7e-05 | – | – | 0.000278 ± 8.9e-05 | 0.00138 ± 0.00059
A14G U56C C61G | < 1e-05 | < 1e-05 | – | – | –
A12U C16G | 0.000539 ± 9e-05 | 0.0117 ± 0.0031 | 0.000549 ± 0.00013 | 0.00491 ± 0.0008 | 0.00786 ± 0.0024
A12U C16U | 0.00238 ± 0.0003 | 0.0879 ± 0.035 | 0.00439 ± 0.00083 | 0.0232 ± 0.0037 | 0.076 ± 0.027
A12U G32C | < 1e-05 | – | < 1e-05 | – | < 1e-05
A14C A15U U56G | 0.000225 ± 6.3e-05 | 0.00809 ± 0.0027 | – | 0.00145 ± 0.00027 | 0.00238 ± 0.00057
G13U U49A C58A C68U C70U | < 1e-05 | – | – | – | –
A14G G37A A42U U69A | 0.000165 ± 2.5e-05 | 0.0157 ± 0.0032 | – | 0.00196 ± 0.00035 | –
A12G A48C | < 1e-05 | – | – | – | –
A12G A48U | < 1e-05 | 2.34e-05 ± 7.6e-06 | < 1e-05 | – | –
G13A A64U | < 1e-05 | < 1e-05 | – | < 1e-05 | < 1e-05
G13A A15G C16G G32U A42C U46A U57A C68U | < 1e-05 | – | – | – | –
A12U A42G C50U C71G | < 1e-05 | < 1e-05 | – | – | –
A12U A15U A52C | < 1e-05 | < 1e-05 | – | – | –
A12U G13C A15C C34G | < 1e-05 | < 1e-05 | – | < 1e-05 | < 1e-05
A12U U45G U55C | 0.000356 ± 7.4e-05 | 0.00793 ± 0.002 | – | – | –
G13U C50G C67A | 0.000194 ± 4.6e-05 | 0.000101 ± 2.5e-05 | 0.000278 ± 4.6e-05 | – | 0.000138 ± 2.2e-05
A14C C67U C70U | < 1e-05 | 6.08e-05 ± 1.4e-05 | – | – | –
